Measured values: paper PMC3020112 (The EMBO Journal, 2010)
“And” between values parts separate entries of the source, which are not always exact repeats. Equal entries are not always repeated. Where two headings read alike, the source gives them in different places.

T1: SlmA (Escherichia coli, UniProt P0C093 1-198)
T1 sequence: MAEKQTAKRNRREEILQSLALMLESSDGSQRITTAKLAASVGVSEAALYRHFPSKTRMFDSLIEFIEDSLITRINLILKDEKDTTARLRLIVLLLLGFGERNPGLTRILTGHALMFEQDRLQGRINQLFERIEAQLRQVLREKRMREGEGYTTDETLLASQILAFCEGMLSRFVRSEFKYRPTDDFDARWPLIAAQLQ

T2: SlmA (synthetic lethal with a defective Min system) (E. coli), P0C093
T2 chain: T1 sequence

B1: randomized DNA 1 (dsDNA)
DNA 1: AGTCTATAGACT
DNA 2: AGTCTATAGACT
B2: FtsZ, full length (E. coli) (natural protein)
chain: MFEPMELTNDAVIKVIGVGGGGGNAVEHMVRERIEGVEFFAVNTDAQALRKTAVGQTIQIGSGITKGLGAGANPEVGRNAADEDRDALRAALEGADMVFIAAGMGGGTGTGAAPVVAEVAKDLGILTVAVVTKPFNFEGKKRMAFAEQGITELSKHVDSLITIPNDKLLKVLGRGISLLDAFGAANDVLKGAVQGIAELITRPGLMNVDFADVRTVMSEMGYAMMGSGVASGEDRAEEAAEMAISSPLLEDIDLSGARGVLVNITAGFDLRLDEFETVGNTIRAFASDNATVVIGTSLDPDMNDELRVTVVATGIGMDKRPEITLVTNKQVQQPVMDRYQQHGMAPLTQEQKPVAKVVNDNAPQTAKEPDYLDIPAFLRKQAD
B3: SlmA (synthetic lethal with a defective Min system) (natural protein)
chain: T1 sequence
B4: C-terminal truncated FtsZ, FtsZ(1–360), P0A9A6 1-360 (domain or fragment)
chain: MFEPMELTNDAVIKVIGVGGGGGNAVEHMVRERIEGVEFFAVNTDAQALRKTAVGQTIQIGSGITKGLGAGANPEVGRNAADEDRDALRAALEGADMVFIAAGMGGGTGTGAAPVVAEVAKDLGILTVAVVTKPFNFEGKKRMAFAEQGITELSKHVDSLITIPNDKLLKVLGRGISLLDAFGAANDVLKGAVQGIAELITRPGLMNVDFADVRTVMSEMGYAMMGSGVASGEDRAEEAAEMAISSPLLEDIDLSGARGVLVNITAGFDLRLDEFETVGNTIRAFASDNATVVIGTSLDPDMNDELRVTVVATGIGMDKRPEITLVTNKQVQQPVMDRYQQHGMAPLTQEQKPVAKVVND
B5: randomized DNA 2 (dsDNA)
DNA 1: CCTCAGCTGAGG
DNA 2: CCTCAGCTGAGG
B6: SBS position 3 G to A (symmetric double mutant) (dsDNA)
DNA 1: GTAAGTACTTAC
DNA 2: GTAAGTACTTAC

Columns and labels:
SlmA = molecular target: T1, SlmA; assay: fluorescence polarization
[1] = molecular target: B3; assay: SAXS
SAXS = molecular target: the molecule itself; assay: SAXS
[2] = molecular target: B2; assay: fluorescence polarisation
SEC = molecular target: the molecule itself; assay: SEC
[3] = molecular target: B2; assay: fluorescence polarisation; remark: listed apart in the source
[4] = molecular target: T2, SlmA (synthetic lethal with a defective …); assay: fluorescence polarisation; settings: remark: other sources report otherwise

B1: no binding (SlmA).

With B2 the “stoichiometry N” value [1] was 1 SlmA:FtsZ and the binding result (SAXS) was “binds”.

In the case of B3, the Kd [2] is reported as 142 nM and 130 nM and 205 nM, the “stoichiometry N” value (SEC) is reported as 2 and the Kd [3] is reported as 119 ± 11 nM.

B4 was tested, and the Kd [4] was 148 nM.

B5: no binding (SlmA).

In the case of B6, the Kd (SlmA) is reported as about 60 nM.
